49 molecules from patent US20180222961A1 (IMMATICS BIOTECHNOLOGIES, published 2018) can be followed below.

For the first experiment, the target named is T1, HLA-A*03:01 (human).
T1 construct: also called peptide-receptive MHC molecules
The experiment in a line: UV-exchange b2m ELISA; exchange-yield grade. An excerpt:
(§1) Candidate peptides for T cell based therapies according to the present invention were further tested for their MHC binding capacity (affinity). The individual peptide-MHC complexes were produced by UV-ligand exchange, where a UV-sensitive peptide is cleaved upon UV-irradiation, and exchanged with the peptide of interest as analyzed. Only peptide candidates that can effectively bind and stabilize the peptide-receptive MHC molecules prevent dissociation of the MHC complexes. To determine the yield of the exchange reaction, an ELISA was performed based on the detection of the light chain (β2m) of stabilized MHC complexes. The assay was performed as generally described in Rodenko et al. (Rodenko et al., 2006).
(§2) 96 well MAXISorp plates (NUNC) were coated over night with 2 ug/ml streptavidin in PBS at room temperature, washed 4× and blocked for 1 h at 37° C. in 2% BSA containing blocking buffer. Refolded HLA-A*02:01/MLA-001 monomers served as standards, covering the range of 15-500 ng/ml. Peptide-MHC monomers of the UV-exchange reaction were diluted 100-fold in blocking buffer. Samples were incubated for 1 h at 37° C., washed four times, incubated with 2 ug/ml HRP conjugated anti-β2m for 1 h at 37° C., washed again and detected with TMB solution that is stopped with […]. Absorption was measured at 450 nm. Candidate peptides that show a high exchange yield (preferably higher than 50%, most preferred higher than 75%) are generally preferred for a generation and production of antibodies or fragments thereof, and/or T cell receptors or fragments thereof, as they show sufficient avidity to the MHC molecules and prevent dissociation of the MHC complexes.
A general note: An ELISA detects its analyte on a solid surface through an enzyme-linked reagent.
VSKTTGMEF displayed a peptide exchange yield of 10 to 20%.

The molecule SVLTSSLVK came in with a peptide exchange yield of 20 to 50%.

VLADSVTTK registered a peptide exchange yield of 20 to 50%.

Turning to RLFSWLVNR, the peptide exchange yield is 50 to 75%.

RTEEVLLTFK showed a peptide exchange yield of 20 to 50%.

Molecule KTFPASTVF showed a peptide exchange yield of 10 to 20%.

With RMFADDLHNLNK, the peptide exchange yield is 50 to 75%.

As to VTADHSHVF, the peptide exchange yield was 10 to 20%.

Turning to RVNAIPFTY, the peptide exchange yield lay in the range of 50 to 75%.

Turning to GTYAHTVNR, the peptide exchange yield lay in the range of 50 to 75%.

The molecule GAYAHTVNR came in with a peptide exchange yield of 50 to 75%.

KTFTIKRFLAK showed a peptide exchange yield of 20 to 50%.

In the case of GTNTVILEY, the peptide exchange yield fell in the range of 50 to 75%.

Take KTLELRVAY: the peptide exchange yield was in the range of 20 to 50%.

Take STTFPTLTK: the peptide exchange yield lay within 20 to 50%.

In turn, TTALKTTSR came in with a peptide exchange yield of 10 to 20%.

For RSRLNPLVQR, the peptide exchange yield was in the range of 20 to 50%.

For the molecule RLQEWKALK, the peptide exchange yield lay in the range of 50 to 75%.

RLKGDAWVYK: the peptide exchange yield is 50 to 75%.

As for AAFVPLLLK, the peptide exchange yield fell in the range of 20 to 50%.

Consider AIKVIPTVFK, for which the peptide exchange yield lay in the range of 20 to 50%.

In turn, QIHDHVNPK showed a peptide exchange yield of 20 to 50%.

In turn, HTFGLFYQR displayed a peptide exchange yield of 20 to 50%.

In the case of VTDLISPRK, the peptide exchange yield was 20 to 50%.

RQPERTILRPR had a peptide exchange yield of 20 to 50%.

Turning to RLFTSPIMTK, the peptide exchange yield was 50 to 75%.

Molecule AVFNPRFYRTY registered a peptide exchange yield of 20 to 50%.

Turning to RVFTSSIKTK, the peptide exchange yield lay within 20 to 50%.

For SAAPPSYFR, the peptide exchange yield was 20 to 50%.

Regarding ISYSGQFLVK, the peptide exchange yield lay within 50 to 75%.

SSSSATISK displayed a peptide exchange yield of 20 to 50%.

Another experiment concerns the target T2, HLA-B*07:02 (human).
T2 construct: also called peptide-receptive MHC molecules
The experiment in a line: UV-exchange b2m ELISA; exchange-yield grade.
Text: as §1, §2
For the molecule APSTPRITTF, the peptide exchange yield lay within 50 to 75%.

With RPRSPAGQVA, the peptide exchange yield lay within 50 to 75%.

Take FPFNPLDF: the peptide exchange yield is 20 to 50%.

In turn, IPTYGRTF had a peptide exchange yield of 50 to 75%.

For SPGAQRTFFQL, the peptide exchange yield was 50 to 75%.

SPALHIGSV gave a peptide exchange yield of 50 to 75%.

Regarding RPRSPAGQVAAA, the peptide exchange yield was in the range of 50 to 75%.

Take RPRSPAGQVAA: the peptide exchange yield is 50 to 75%.

As to SPAPLKLSRTPA, the peptide exchange yield lay within 20 to 50%.

Molecule AAASPLLLL displayed a peptide exchange yield of 20 to 50%.

In turn, SPMHDRWTF came in with a peptide exchange yield of 50 to 75%.

In the case of YPGLRGSPM, the peptide exchange yield was in the range of 50 to 75%.

LPEQTPLAF gave a peptide exchange yield of 20 to 50%.

In turn, APLKLSRTPA came in with a peptide exchange yield of 50 to 75%.

As for TPTKETVSL, the peptide exchange yield was 50 to 75%.

In the case of KPIESTLVA, the peptide exchange yield was in the range of 50 to 75%.

Molecule NPDLRRNVL yielded a peptide exchange yield of 50 to 75%.

In turn, GPFPLVYVL had a peptide exchange yield of 50 to 75%.
